Reference: patent US20090099075A1

Target: human hair (hair keratin) (human)
Assay: quantitative hair binding assay, peroxidase coupled via the His tag, TMB

B1: KBD-B (keratin-binding domain B of human desmoplakin), His-tagged, expressed from pQE30-KBD-B (SEQ ID No.: 166) (protein)
chain: MRGSHHHHHHGSACELEPHTGLLLLSVQKRSMSFQGIRQPVTVTELVDSGILRPSTVNELESGQISYDEVGERIKDFLQGSSCIAGIYNETTKQKLGIYEAMKIGLVRPGTALELLEAQAATGFIVDPVSNLRLPVEEAYKRGLVGIEFKEKLLSAERAVTGYNDPETGNIISLFQAMNKELIEKGHGIRLLEAQIATGGIIDPKESHRLPVDIAYKRGYFNEELSEILSDPSDDTKGFFDPNTEENLTYLQLKERCIKDEETGLCLLPLKEKKKQVQTSQKNTLRKRRVVIVDPETNKEMSVQEGVDLQPSLIS
Q: With B1 as the binder, how does the absorption at 405 nm read?
A: Its absorption at 405 nm is 0.65 A405 nm.
